The values that follow come from a protein production outcome set (Wang et al. 2014).
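Further: failed if final PepcDB status was selected cloned or expressed and not failed if soluble or beyond.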

This series is described as follows: label from the status in PepcDB records.
Take “MNKPYFIAFLLSLALWTVIPSVFAGDVVLKVFEGKPRINSPHITGNYPSTPFIFYIPTSGQRPMQWSAEKLPEGLELDSKTGIISGVMTSKGDYTVTLKAENALGVSVKQLVIRIGDELLLTPPMGWNSWNTFGQHLTEELVLQTADAMITNGMRDLGYSYINIDDFWQLPERGADGHLQIDKTKFPRGIKYVADYLHERGFKLGIYSDAAEKTCGGVCGSYGYEETDAKDFASWGVDLLKYDYCNAPVDRVEAMERYAKMGRALRATNRSIVYSVCEWGQREPWKWAKQVGGHLWRVSGDIGDIWYRDGNRVGGLHGILNILEINAPLSEYAGPSGWNDPDMLVVGIDGKSMSIGYESEGCTQEQYKSHFSLWCMMASPLLSGNDVRNMNDSTLKILLDPDLIAINQDVLGRQAERSIRSDHYDIWVKPLADGCKAVACFNRASSPQTVILNENTIADLSFEQIYCLDSHLTKSGSDSKELIVKLAPYQCKVYILGKTDLEHHHHHH”: the protein production result is reported as “failed”.
In the case of “MNKRNWTAYYNSTKQNTLPRKSLLKAIANFDKEKINLSKSAIDLGCGAGIDVMELLRCGWSVIAIDSQLSAIDSLLSSAQELTCANKLKTIISSFEALDSLPKVNLINASFSLPFLKPVYFYKFWSVILKGLKPGGRFSGSFFGFNDFWNTRTDMTFLNREMICHLFSQFKIEYFQEEEKDEMDALGYYKHWHKFFIVAKKIALEHHHHHH”, the protein production result is “failed”.
For “MNKRPARPTRSRRRISVAPATRQLRNARQMMADDIAVARAVERGELETEEHPTHGATNAEKAAESGLQPQPSDHEKAEVATSKHGLPKLTIVLLTVAAAWLGLSFLHELSSVVAPLFFGLNLLITAYPIHTWLVKHKCPRWISATTAGTAVIVVLAAGVVGMVWSVAAMINQLQSYIPQMEKIYTQLLHWSTQLGYSQDVIADKLKKIDPQQVMSVVTSVASDTTSVVTMIIVILTGMIFMVMDTPQMHDRLRMAGSRKPDVVLALESFASGIRKYWLVTTVFGLIVALFDWAALLIIGVPLAGVWALFSFLTNYIPNIGFIIGVIPPALLALFKDGWVAAVAVVVSYSVLNFVIQSIIQPKFAGDAVGLTPTMSFVSLLLWGWVFGALGTLIALPCSLLVKATLIDHDPGARWVNALISSRPTEGLEDNPDE”, the protein production entry is listed as “failed”.
With “MNKRPASGTGHSVLRRSTRRQLLGAAAGATAALCGCLDDNGTDRTEPLDVSIGDVATYRYGPQRRGVADTTVPETAPDERWRLNTDWPVRAAPAVVGGVVYHCGNGLAAVDAVDGERLWRVDTDGPSETPPAVADGVVFAGTHRGRLHAINSDGTEHWTASGNGRIDAAPVVVDGRVYTASRATDGEVYAFEAGGREWTHEAVYRVNSPPAVADGLVFVGGWEGAVYGIDADSGERQWRTATDGPVLSSPAVADGRVFAGGNDGVVRALDVADGDERWQVETAATPTAPAVADGSLYVGDADGRLRRLDAATGEEGWQVTVASGIGVPPTVVEGTVVVGTTDGGVVAVDAADGTERWRVDTGERIRSQPVLAAGRVFVGSGRRLLALGK” the entry was “failed”.
With “MNKTFVGFIFLLFLVGGVVSCQRSSSPYPYSLRYADSLMEISPERTLAYLRKLDVSTYSAGDRAYFSLLFTQATDKNMLSLLPCDSLIDTALDYYIKKDGVNWAKAWLYKGRIQKKMNMTEQALKSCFTALQGVEGNTGEELKLKGMLYEDMGSIYLHQSLYQKAFDAFYRSYQCDSLLNDHRLVMYPLSNMGWVRVIQGKTVEAFYYLNQSIQLALRLNDSAFVSDIYERMSLNCENVDSAFLYAHLSHQYLTKDGDSISLWLTFGDLYLDKQELDSAEYYLKRILDTADFKRKILASYSLAEVEKIRGNYQRAFEYQSYYGDNIDSIFLLNKASDIERLAYKYDSEAKVVKEKEKQRFLIQQLCYGGVLFLLVIVVIFQRVYRRRQIARLLYEQRITYLNEKTALSQLQIERLEVQISALKQSGMEREQEIDLKQAELCCVIDEKARLRNCLFMETSIFKHIRELSTQPRLGQNGTKGSPKVLLMKEQEQLKNILFGIYDDYIRYLKGTYPKITDNDCIYCCLKLCEFDDQTIAYCFGNVSKQIVAQRRLRLKKKMAEAN” the entry was “failed”; with “MNKTLIAAAVAGIVLLASNAQAQTVPEGYQLQQVLMMSRHNLRAPLANNGSVLEQSTPNKWPEWDVPGGQLTTKGGVLEVYMGHYMREWLAEQGMVKSGECPPPYTVYAYANSLQRTVATAQFFITGAFPGCDIPVHHQEKMGTMDPTFNPVITDDSAAFSEQAVAAMEKELSKLQLTDSYQLLEKIVNYKDSPACKEKQQCSLVDGKNTFSAKYQQEPGVSGPLKVGNSLVDAFTLQYYEGFPMDQVAWGEIKSDQQWKVLSKLKNGYQDSLFTSPEVARNVAKPLVSYIDKALVTDRTSAPKITVLVGHDSNIASLLTALDFKPYQLHDQNERTPIGGKIVFQRWHDSKANRDLMKIEYVYQSAEQLRNADALTLQAPAQRVTLELSGCPIDADGFCPMDKFDSVLNEAVK”, “not failed”.
As to “MNKYFPLAKYKKEKMMFMKLLEGCYKVERLYIYSKRLCKQMEPKSQEEYNIARKQIKKTFDEGWTEADCGGRESCILEIPFVFWSSPNKSNCRRQPKRSYGKKLLYIPLNDLKDDIPYPNSSSEAGKVWKPQ”, the protein production entry is recorded as “failed”.
For “MNLANIVQRGWEALGAGDFDTLVTDYVEKMIFIMPGQADVLKGRQAFRSALDNLGEILPPGFEITGLRQLEGENEIVSIVEWKSDKMIASQLSVLFKFEGDQIYEERWFVDTEQWKSVF”, the protein production result is listed as “not failed”.
As to “MNLDRRGLILLVILTLAWGINWPIMKLGVAHFPAMAFRLLCMAGGLVALGLALTFRGDSLRVPRAAWGTVLKLAIPNMVIWHLFAICAVKMLSSGRAAILGYTMPIWAVVWGLVIFRDRIALSAWIGIGCALAGTVLLLSGEIAALTGSPAGTLLMLVAAAGWGFGTQLMKRTHTDVPIGAMTFWMLAITLPFLGAGTLLFESGWRMPTAIEWGAIAYNAVVVFAYCHLVWFALARSLPPVVSSLSIMFIPVVGVFSGMWFLGETPHWQDYVAIVLMFAALSSVMLAPLLRRRM”, the protein production result is reported as “failed”.
The same measure for “MNLETIPSGELTVSNQRSISRLVAQAGQMLLAHGAESTLVCDIMRRIGLACGVHEVAVALSANALVVTTVMDGHCITTTRSCADRGINMRVITQIQRICIMMERGLLDAAMAQKKLNTISPERYNRWLVVLMIGLSCAAFSHLAGGDWGVFIMTFLASAGGMIVRQEIGHRHFNPLLNFAATAFVTTLISAQAEIYQIGNLPTVAMASSVLMLVPGFPLINSVADMLKGHINMGIARFVMASLLTLATCLGIVAAMSVTGIWGWAI”: “failed”.
Take “MNLFGQKDRGNHVSGVDRGKVIMYGLSTCVWCKKTKKLLTDLGVDFDYVYVDRLEGKEEEEAVEEVRRFNPSVSFPTTIINDEKAIVGFKEKEIRESLGF”: the protein production result was “not failed”.
With “MNLFKKIIFGAAVMGLMAAGDASAAGKIVIDGSTTVGPIAKAFAAYFHKKTGIDVTVSESGSGNGAKSLINKTCDIADMSRPMEPKEIAAAKANGVNPVEHVVALDGLSMIVHPSNPVAKLTTAQIHDIYLGKITNWKQVGGPNAQIVFVQRESNSGTQECFEKLVMKDDKIAPAAETAASNGAVKSRVASTPNAIGFVGLGFVDKSVKPLIVNGVKPSIATVRNGSYVLHRPLFMYTNGQPKGDVAKFINLPKTPDGKRMISELGFVNK”, the protein production entry is “failed”.
With “MNLGAAEEESAQEIHLPADINWEMLDKSKFFVLGAALFSGVSGALYPAVLMKTRQQVCHSQGSCIKTAFTLVRHEGLRGLYRGFGTSLMGTIPARALYMTALEVTKSNVGSAAVSLGLTEAKAAAVANAVGGLSAAMAAQLVWTPVDVVSQRLMVQGSAGLVNASRCNYVNGFDAFRKIVRADGPKGLYRGFGISILTYAPSNAVWWASYSVAQRMVWGGIGCYVCKKDEESGNNSTTMKPDSKTIMAVQGVSAAIAGSVSALITMPLDTIKTRLQVLDGEDSSNNGKRGPSIGQTVRNLVREGGWTACYRGLGPRCASMSMSATTMITTYEFLKRLSAKNHDGFYSKS” the entry was “failed”.
For the sequence “MNLIKTCGLCLLLSVALSGCVTAPTPPESDPQAEQAVLEVSFSEAVKAMKQGNFTEARTVFEQLARNYPDKAGPMANLGIIAFREGDADGAKEWFERARAVNPEHVQALNHLGVIARNAGEFDEAERYYRAALAADPDYAPAILNLAFLLDIYLGNPADAIELYERYQSAASEPHPRLEDWIFDAKNRI”, the protein production result is given as “failed”.
With “MNLLNLFTYVIPIAICIILPIFIIVTHFQIKSLNKAVTSFNKGDRSNALEILSKLVKSPIKNVKANAYITRERIYFYSRDFELSLRDLLQAIKLRPKTINDVYSFALSYHILGEPERALKYFLRAVELQPNVGISYENLAWFYYLTGKYDKAIENFEKAISMGSTNSVYRSLGITYAKIGDYKKSEEYLKKALDAEPEKPSTHIYFSYLKRKTNDIKLAKEYALKAIELNKNNFDGYKNLAEVNLAEDDYDGFYKNLEIFLEKINFVTNGEDFNDEVYDKVKDNEKFKELIAKTKVIKFKDLGIEIDDKKILNGKFLV” the entry was “failed”; with “MNLNEYKLLTFFNMKYKRKSKEEFLIKYQHDNTFRIMSLCLIILFLGVMSASVAHAESYKFVTKWGSYGNGAGQFHYPRAIVATSSGYIYVADSGNNRVQEFNSNGKFINQWSSTNDVSLGSVNGVAIDSSGDVYVADTNNRIVKFDKNGNFITKFGSYGSGNVQFKNARDICLDSSGNIYVADTGNNRIQKLDNNGNYLVQWGSYGSSNGQFKNPIDVALDSLDNVYVADKDNHCIKKFDSNGNYLMQFGNSGNGDGQFNNIISVFVDSSGNIYVSDRGNTRIQKFDSDGNYLTHWGSYGTNDGQFKNPEDIGVDSSGNVYVADADNNRIQKFAPVYPPVTNFVSNVTTGYAPLAVKFTDTSTGTPFSWTWNFGDGTFSTVKNPTHTYSKAGKYTVKLTATNEGGNSTAAKTNYITVKTTTVKPVAIFSASPTSGKAPLKVTFTDKSTGSPTKWKWNFGDGSKSFLQNPSHKYSKAGKYTVSLTVKNDKGSNTVTKTNYLTVVAKPVAAFSASPTSGKAPLKVTFTDKSTGSPTKWKWNFGDGTTSAKQNPIHKYSKAGKYKVTLTVANAAGINTVTKTNYITVIAKPAAAFSASPTSGKAPLKVTFSDKSTGTPTKWKWTFGDGSKSFLQNPTHKYSKAGKYKVILTVTNTAGSNTVTKTNYITVVAKPVAAFSASPTSGKAPLKVTFSDKSTGTPTKWKWNFGDGATSIKQNPVHKYSNVGSYTVKLTVTNAAGSNTKTISNYIILKSK”, “failed”.
In the case of “MNLNQLDIIVSNVPQVCADLEHILDKKADYANDGFAQFTIGSHCLMLSQNHLVPLENFQSGIIIHIEVEDVDQNYKRLNELGIKVLHGPTVTDWGTESLLVQGPAGLVLDFYRMK”, the protein production entry is given as “not failed”.
With “MNLQHITILTLFIEGLLSFFSPCVLPILPVYIGILAGQGEEKQSGEIIWDRRKVFTNTFLFISGIAATFFILAFASSLISQFLQSHIQFLQNLGGILILIMGLVQVGLIKSHFFNREYSAKNKVYQAGQKVTPLIAFLMGFTFSFSWTPCIGPILASVFLYASTHQGIYSVLLILIYCLGFVIPFALIALFSQRVMSVFKKQKRFLKYTKLFSGILLILIGISILTGSFAKIAHLFN” the entry was “failed”; with “MNLRAIKAILIKDLKEIRREKMVVFWIFVFPLMWVTLMGALWGGPGSPVTVDVGVVNPGGNISTLITEIMENSTINGTQLFNVKLFPNASLGIEALKHGSIKALVLFPEDFDINITSGLQGRVLVYFDKTDPQNYQIVSSIIRSFFSEVGREFRARKIEMMMQYIPTEYKEYLLATAEPIVLEEKIIHGESGRGIKFYVTSFIGIQFFFATMLMIGGSVLEEITKGTLRRIAASPTTPWDFLIGKSLSTLTTIIVSIIIGIGYARVVFGATLFPSLFGWAIIFTAAVFSMSLGLAIVMLTRSERSTPAVVNLVSMPLLFLAGIVIPESIMPEWARPIAHYFPLGRALKVLRLSDIYGRPPGELVGDFIYVLIWSVLMAMVAVASYAWAIRRID”, “failed”.
